For 34 molecules, EC50 and EC50 Mut/Wt results are on record in patent US6136558A, “Heregulin variants” (Genentech, Inc., priority 1998, dated 2000).

In general, EC50 refers to the concentration needed to bring the measured effect to its halfway point.

Read-outs that look alike come from different tables or passages of the source. Ends that are not written are not given here.

Assay [1] deals with ErbB-2/3 receptor-Ig fusion (ErbB-2/3-Ig). Description: Phage ELISA, competition with soluble ErbB-2/3-Ig. The assay is classed as binding. To be noted: EGF-like domain displayed monovalently on phage as pIII fusion; soluble ErbB-2/3-Ig competing half of the phage off the plate; average of duplicate experiments. The text has this: To produce phage displaying the domains, mutagenesis reaction mixtures were electrotransformed into XL1-Blue™ cells (Stratagene, Inc., La Jolla, Calif.), according to the manufacturer's protocol. The transformed cells were then infected with 10^11 plaque-forming units (pfu) M13K07 helper phage (Promega Corp., Madison, Wis.). […] The phage were resuspended in phosphate-buffered saline (PBS: 0.01 M sodium phosphate, 0.1 M NaCl, pH 7.5).
Microtiter plates (Nunc Maxisorp™ 96-well plates, Inter Med, Denmark) for phage ELISA were prepared as follows. The wells were precoated overnight with 0.5 μg of rabbit anti-human IgG (Fc gamma fragment-specific) antibodies (Jackson Immunoresearch, West Grove, Pa.) in 100 μL 50 mM NaCO3 (pH 9.6). The wells were blocked for 30 minutes (min) with 200 μL PBS containing 0.1% bovine serum albumin (BSA) and rinsed with wash buffer (PBS containing 0.05% Tween 20™). The wells were then coated with 0.1 μg ErbB-2/3-Ig in binding buffer (PBS, 0.1% BSA, 0.05% Tween 20™) for 1 h, and washed again.
Following incubation for 2 h at room temperature, plates were washed extensively and treated with a 1:900 dilution of anti-M13 horseradish peroxidase conjugate (Pharmacia, Piscataway, N.J.) for 20 min. The amount of phage binding was determined by assaying horseradish peroxidase activity using o-phenylenediamine dihydrochloride) substrate solution (Sigma Chemical Company, St. Louis, Mo.).
Background: An ELISA detects its analyte on a solid surface through an enzyme-linked reagent.

Assay [2] deals with ErbB-4 receptor-Ig fusion (human) (UniProt Q15303). Description: phage ELISA, soluble ErbB-4-Ig as competitor.
The target in assay [3] is ErbB-3 receptor-Ig fusion (human) (UniProt P21860). Description: phage ELISA, soluble ErbB-3-Ig as competitor.
Assay [4] has as its target ErbB-4 receptor-Ig fusion (human) (UniProt Q15303). Kind of assay: phage ELISA, ratio to wild-type HRG-β1 177-244 on phage; clone selected on ErbB-4-Ig with ErbB-3-Ig counter-selection.
The target of assay [5] is ErbB-3 receptor-Ig fusion (human) (UniProt P21860). Kind of assay: phage ELISA, ratio to wild-type HRG-β1 177-244 on phage.
The target in assay [6] is ErbB-4 receptor-Ig fusion (human) (UniProt Q15303). Kind of assay: phage ELISA, ratio to wild-type HRG-β1 177-244 on phage; clone selected on ErbB-4-Ig.
Another assay concerns the target ErbB-4-Ig. Kind of assay: Inhibition of 125I-HRG-β1 177-244 binding to ErbB-4-Ig by soluble protein. How it is done: (§1) The affinities of the Trx-variant fusions for ErbB receptor-Ig fusions were determined by measuring inhibition of ^125 I-HRG-β1 177-244 binding to ErbB-3-Ig and ErbB-4-Ig. Receptor fusions were coated on plates (Nunc Maxisorp C™ break-apart strip wells, Inter Med, Denmark) via anti-human IgG, as described in Example 1 for phage ELISA. Binding assays were carried out with a constant amount of ^125 I-HRG-β1 177-244 (100-300 pM) and varying concentrations (100 pM-4 μM) of unlabeled Trx-variant fusion. Following incubation for 1-3 h at room temperature, plates were washed, and the amount of bound ^125 I-HRG-β1 177-244 in each well was counted on a gamma counter (Isodata, ICN Biomedic Systems, Huntsville, Ala.). For the ErbB-3 binding assays, the blocking buffer was TBST (0.025 M Tris-HC1 [pH 7.5], 0.15 M NaCl, 0.02% Tween 20™) containing 1% BSA; the binding buffer was RPMI 1640™ cell culture media (Gibco-BRL, Gaithersburg, Md.) containing 2 mM glutamine, 100 U/mL penicillin, 100 μg/mL streptomycin, 10 mM HEPES buffer (pH 7.2), 0.2% BSA; and the wash buffer was TBST. For the ErbB-4 binding assays, PBS containing 1% BSA was used as the blocking and binding buffers, and the wash buffer was PBS containing 0.05% Tween 20™.

In the next assay the target is ErbB-3-Ig. Kind of assay: Inhibition of 125I-HRG-β1 177-244 binding to ErbB-3-Ig by soluble protein. How it is done:
as §1

Assay [7] has as its target ErbB-2/3 receptor-Ig fusion (human) (UniProt P04626). Description: phage ELISA, soluble ErbB-2/3-Ig as competitor.
Assay [8] deals with ErbB-3 receptor-Ig fusion (human) (UniProt P21860). Description: displacement of 125I-HRG-β1 177-244 from ErbB-3-Ig.
In assay [9] the target is ErbB-4 receptor-Ig fusion (human) (UniProt Q15303). Description: displacement of 125I-HRG-β1 177-244 from ErbB-4-Ig.
The mark [10] stands for this setting: soluble HRG-β1 EGF variant free of pIII, inhibition of 125I-HRG binding, read-out: ErbB-4-Ig EC50.
Where [11] appears, read: soluble HRG-β1 EGF variant free of pIII, inhibition of 125I-HRG binding, read-out: ErbB-3-Ig EC50.

Consider “HRG7: HRG-β1 177-228 fused to pIII 247 (SHLVKCAEKEKTFCVNGGECFMVKDLSNPSRYLCKCPNEFTGDRCQNYVMAS; cysteine pairing not given here; also: fused to pIII 247)”, for which the EC50 in assay [1] stood at 42 nM.

As to HRG-β1 177-244 E215A on phage (ligand), the EC50 in [2] was 32 nM; in [3] it was 51 nM.

Regarding HRG-β1 177-244 R207P on phage (ligand), the results for the EC50 Mut/Wt in [4] and in [5] were 1.3 and 6.1, respectively.

With HRG-β1 177-244 R207A on phage (ligand), the EC50 in assay [2] was 30 nM; in assay [3] it was greater than 1000 nM.

Take HRG-β1 177-244 H178L on phage (ligand): the EC50 Mut/Wt amounted to 1.2 in assay [4] and 1.4 in assay [5].

Consider HRG-β1 177-244 H178E on phage (ligand), for which the EC50 Mut/Wt in assay [6] is 1.7; in [5], 9.5.

Turning to “HRG6: HRG-β1 177-227 fused to pIII 247 (SHLVKCAEKEKTFCVNGGECFMVKDLSNPSRYLCKCPNEFTGDRCQNYVMA; cysteine pairing not given here; also: fused to pIII 247)”, the response in assay [1] was half-maximal at 40 nM (EC50).

In the case of HRG-β1 177-244 P205A on phage (ligand), the EC50 came out at 8 nM in assay [2] and 22 nM in [3].

Regarding HRG-β1 177-244 N192A on phage (ligand), the EC50 in [2] is 188 nM; in [3], greater than 1000 nM.

Regarding HRG-β1 177-244 F229A on phage (ligand), the EC50 in assay [2] was greater than 1000 nM; in assay [3], 6 nM.

For “HRG-β1 177-244 H178W with Met in place of 228-231, on phage (ligand)”, the EC50 Mut/Wt in assay [6] was determined as 1.7; in assay [5], 1.2.

For the molecule HRG-β1 177-244 G194A on phage (ligand), the EC50 in [2] is 65 nM; in assay [3], 500 nM.

Take HRG-β1 177-244 Y224A on phage (ligand): the EC50 was found to be 51 nM in assay [2] and 865 nM in [3].

With HRG-β1 177-244 K200A on phage (ligand), the EC50 in [2] was 25 nM; in assay [3], 20 nM.

With “HRG-β1 177-244 H178L with Met in place of 228-231, on phage (ligand)”, the results for the EC50 Mut/Wt in assay [4] and in assay [5] were 1.7 and 6.4, respectively.

Turning to A3: HRG-β1 EGF: S177W, H178E, K181P, the EC50 was determined as 2.1 ± 0.1 nM on ErbB-4-Ig (setting [10]) and 4.3 ± 0.2 nM on ErbB-3-Ig (setting [11]).

Consider “F1: single library F variant: Met198Lys and Met226Ile”, for which the EC50 on ErbB-4-Ig (setting [10]) stood at 0.26 ± 0.011 nM; at ErbB-3-Ig (setting [11]), 0.6 ± 0.04 nM.

Regarding HRG-β1 177-244 H178A on phage (ligand), the EC50 is 32 nM in assay [2] and greater than 1000 nM in [3].

Regarding HRG-β1 177-244 L179A on phage (ligand), the EC50 in assay [2] turned out to be 56 nM; in assay [3], 1000 nM.

Regarding “HRG-β1 177-244 H178T L179M on phage (ligand)”, the EC50 Mut/Wt in [4] was 1.6; in assay [5] it was 1.4.

As for HRG-β1 177-244 E195A on phage (ligand), the EC50 in [2] is 24 nM; in assay [3], greater than 1000 nM.

Turning to “HRG-β1 177-244 H178D L179V on phage (ligand)”, the EC50 Mut/Wt in [4] worked out at 2; in assay [5] it was 2.2.

Take HRG-β1 177-244 R220A on phage (ligand): the EC50 in [2] and in assay [3] was greater than 1000 nM each time.

Consider “HRG-β1 177-244 H178E L179V on phage (ligand)”, for which the EC50 Mut/Wt in [4] amounted to 1.7; in [5], 0.8.

Turning to HRG-β1 177-244 T217A on phage (ligand), the EC50 in assay [2] was 14.2 nM; in assay [3] it was greater than 1000 nM.

For the molecule HRG-β1 177-244 L179M on phage (ligand), the EC50 Mut/Wt in [6] is 1.5; in assay [5], 1.2.

Regarding HRG-β1 177-244 L179V on phage (ligand), the EC50 Mut/Wt turned out to be 1.6 in [6] and 1.5 in assay [5].

B1: HRG6 (ligand)
chain: SHLVKCAEKEKTFCVNGGECFMVKDLSNPSRYLCKCPNEFTGDRCQNYVMA
In assay [7], B1 yielded an EC50 of 40 nM.

B2: HRG7 (ligand)
chain: SHLVKCAEKEKTFCVNGGECFMVKDLSNPSRYLCKCPNEFTGDRCQNYVMAS
As to B2, the concentration for a half-maximal effect (EC50) in assay [7] stood at 42 nM.

B3: HRG4 (ligand)
chain: YVSSESPIRISVSTEGANTSSSTSTSTTGTSHLVKCAEKEKTFCVNGGECFMVKDLSNPSRYLCKCPNEFTGDRCQNYVMA
For B3, the EC50 in assay [7] and in assay [1] was 38 nM each time.

B4: TH-WT (thioredoxin fused at its C-terminus to wild-type HRG-β1 146-244) (ligand)
chain: DDDDKAYVSSESPIRISVSTEGANTSSSTSTSTTGTSHLVKCAEKEKTFCVNGGECFMVKDLSNPSRYLCKCPNEFTGDRCQNYVMASFYKHLGIEFMEAEELY
In the case of B4, the EC50 at ErbB-4-Ig (soluble thioredoxin (Trx) fusion, inhibition of 125I-HRG-β1 177-244 binding, read-out: Sol EC50, binding to the ErbB-4 Receptor) was determined as 15.4 nM; in assay [8], 47.6 nM; in [9] it was 15.4 nM; at ErbB-3-Ig (soluble thioredoxin (Trx) fusion, inhibition of 125I-HRG-β1 177-244 binding, read-out: Sol EC50, binding to the ErbB-3 Receptor) it was 47.6 nM.

B5: HRG5 (ligand)
chain: YVSSESPIRISVSTEGANTSSSTSTSTTGTSHLVKCAEKEKTFCVNGGECFMVKDLSNPSRYLCKCPNEFTGDRCQNYVMASFYKHLGIEFMEAEELY
For B5, the EC50 in [7] and in [1] was 4.7 nM throughout.

B6: HRG11 (ligand)
chain: SHLVKCAEKEKTFCVNGGECFMVKDLSNPSRYLCKCPNEFTGDRCQNYVMASFYGGGSGGG
For B6, in assay [7], the EC50 came out at 19 nM.

B7: HRG11: HRG-β1 177-230 attached to pIII 247 through GGGSGGG linkage (protein)
chain: SHLVKCAEKEKTFCVNGGECFMVKDLSNPSRYLCKCPNEFTGDRCQNYVMASFYGGGSGGG
modifications: also: attached to pIII 247 through GGGSGGG linkage
notes: HRG-β1 177-230 attached to pIII 247 through GGGSGGG linkage
Molecule B7 displayed an EC50 in assay [1] of 19 nM.
